# Values of other authors as cited in publication PMC12537681.
# Molecular target: Spike glycoprotein trimer (Severe acute respiratory syndrome coronavirus 2) (UniProt P0DTC2)
substance,measurement,value
TLR4 (from UniProt O00206),Kd,0.3 µM
